In the supplement of paper PMC11136658:

System: peptide library, one residue held at a place counted from the Y acceptor
Test: relative phosphorylation of the sub-library (ratio to the mean residue at this position); higher = residue favoured
Method in brief: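 Purified recombinant kinases were given 50 μM ATP with γ-32P-ATP and biotinylated Tyr-centred peptide library mixtures for 90 min in 384-well plates. Peptides bound to streptavidin membranes were rinsed and quantified by phosphorimaging, and intensities were normalized per position by the sum of the 18 randomized residues (16 with the Ser/Thr-free library) and multiplied by that number. The reported values are phosphorylation relative to the mean randomized residue.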

RET, construct: aa658-end, human, sequence (P07949 658-1114, looked up): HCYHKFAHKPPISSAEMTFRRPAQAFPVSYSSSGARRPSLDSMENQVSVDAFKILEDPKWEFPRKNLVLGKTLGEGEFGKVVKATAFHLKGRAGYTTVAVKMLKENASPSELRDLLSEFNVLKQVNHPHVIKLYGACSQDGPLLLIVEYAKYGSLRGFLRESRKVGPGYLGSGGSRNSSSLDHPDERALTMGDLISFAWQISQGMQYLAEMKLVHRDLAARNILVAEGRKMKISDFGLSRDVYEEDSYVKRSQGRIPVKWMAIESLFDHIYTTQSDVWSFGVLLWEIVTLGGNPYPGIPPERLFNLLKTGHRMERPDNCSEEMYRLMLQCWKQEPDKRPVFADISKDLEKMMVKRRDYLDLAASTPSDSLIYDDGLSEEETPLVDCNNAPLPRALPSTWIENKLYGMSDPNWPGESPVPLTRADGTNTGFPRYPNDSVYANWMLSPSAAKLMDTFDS
ROS1, construct: aa1883-end, human, sequence (P08922 1883-2347, looked up): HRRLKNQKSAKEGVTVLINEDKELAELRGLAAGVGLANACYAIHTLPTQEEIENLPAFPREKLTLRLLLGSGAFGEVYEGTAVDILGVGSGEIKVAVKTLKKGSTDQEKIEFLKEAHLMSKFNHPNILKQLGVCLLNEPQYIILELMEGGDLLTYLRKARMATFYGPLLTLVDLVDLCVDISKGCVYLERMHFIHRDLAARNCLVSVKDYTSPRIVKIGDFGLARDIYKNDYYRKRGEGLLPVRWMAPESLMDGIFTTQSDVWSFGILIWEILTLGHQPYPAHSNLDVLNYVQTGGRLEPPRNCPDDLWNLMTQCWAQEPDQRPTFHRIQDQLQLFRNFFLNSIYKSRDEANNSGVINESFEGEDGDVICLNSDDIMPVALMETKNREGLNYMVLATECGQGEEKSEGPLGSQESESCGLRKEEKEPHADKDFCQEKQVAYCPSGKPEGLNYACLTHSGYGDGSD

RET, construct: aa658-end, human (from UniProt P07949)
relative phosphorylation
Settings	at +1	at +2	at +3	at +4	at +5	at -1	at -2	at -3	at -4	at -5
A fixed	0.957	0.877	0.845	0.859	0.923	0.865	0.967	0.857	1.08	1.05
D fixed	0.306	0.726	0.705	0.87	0.823	1.29	0.865	1.04	1.02	0.925
E fixed	0.415	0.976	0.636	0.831	0.783	1.2	0.885	1.43	1.1	0.86
F fixed	1.49	1.1	1.12	1.14	0.844	1.02	0.624	0.934	0.881	0.91
G fixed	0.541	0.643	0.88	1.05	1.44	0.5	1.34	1.18	1.27	1.23
H fixed	1.37	0.942	1.17	1.1	1.14	1.4	1.04	1.11	1	1.04
I fixed	1.59	0.802	1.28	0.73	0.765	1.46	0.674	0.606	0.749	0.786
K fixed	0.629	0.939	0.582	1.12	1.17	0.656	1.3	1.11	1.26	1.33
L fixed	1.41	1.07	1.09	0.83	0.76	1.12	0.768	0.748	0.888	0.872
M fixed	1.29	0.996	1.2	1.01	0.972	0.76	0.712	0.769	0.931	0.875
N fixed	0.513	1.21	0.865	1.08	1.09	1.29	1.2	1.14	0.859	1.05
P fixed	0.494	0.965	1.24	1.17	1.54	0.896	1.19	1.15	1.23	1.1
Q fixed	1.06	1.11	1.01	1.22	1.05	1	1.26	0.964	1.16	1.05
R fixed	1.02	1.37	0.818	1.34	1.29	0.672	1.52	1.3	1.31	1.42
S fixed	0.889	0.97	0.884	0.888	1	0.695	1.24	1.09	0.89	0.95
T fixed	0.943	1.01	0.962	0.874	0.952	0.984	1.04	1.04	0.757	0.892
V fixed	1.42	0.924	1.15	0.775	0.635	1.12	0.708	0.646	0.735	0.773
W fixed	1.66	1.37	1.56	1.11	0.819	1.07	0.668	0.879	0.883	0.882
pThr fixed	0.469	1.04	0.392	0.595	0.607	0.878	0.723	1.02	0.966	0.876
pTyr fixed	1.17	1.45	0.459	0.586	0.622	1.46	0.933	1.85	1.23	1.15

ROS1, construct: aa1883-end, human (from UniProt P08922)
relative phosphorylation
Settings	at +1	at +2	at +3	at +4	at +5	at -1	at -2	at -3	at -4	at -5
A fixed	1.4	0.764	0.709	0.96	0.93	1.04	1.06	0.892	1.22	1.17
D fixed	0.482	0.396	0.211	0.611	0.583	1.09	0.882	0.994	1.09	0.993
E fixed	0.947	0.547	0.174	0.772	0.512	1.09	1.1	1.04	1.18	0.873
F fixed	1.06	1.19	1.65	1.19	1.47	0.882	0.738	0.932	0.878	0.868
G fixed	0.696	0.581	0.722	1.09	1.1	0.835	1.2	1.2	1.36	1.31
H fixed	1.07	0.954	1.67	1.13	0.93	1.21	1.07	1.09	0.888	0.99
I fixed	1.33	0.963	1.57	0.865	0.776	1.11	0.797	0.727	0.827	0.878
K fixed	0.501	1.3	0.858	1.27	1.3	0.592	1.01	0.968	1.04	1.08
L fixed	1.37	1.41	1.49	0.918	0.831	1.33	0.872	0.863	0.995	0.882
M fixed	1.36	1.17	1.33	1.07	0.873	0.975	0.733	0.828	0.855	0.922
N fixed	0.551	1.04	0.581	0.88	0.981	1.29	1.1	1.2	0.935	1.05
P fixed	0.446	0.904	0.532	0.972	1.64	1.45	1.29	1.23	1.19	1.24
Q fixed	1.09	0.94	0.669	1.14	0.958	0.964	1.16	0.915	1.11	0.963
R fixed	0.649	1.31	1.07	1.31	1.25	0.533	1.1	1.09	0.982	1.12
S fixed	1.26	1.01	0.793	0.979	1.2	0.975	1.18	1.17	0.898	0.967
T fixed	1.25	0.937	0.922	0.87	0.894	0.906	1.02	1.07	0.724	0.93
V fixed	1.42	1.08	1.27	0.988	0.622	0.976	0.906	0.824	0.859	0.879
W fixed	1.1	1.5	1.77	0.989	1.16	0.762	0.774	0.976	0.972	0.891
pThr fixed	0.802	0.447	0.162	0.305	0.359	0.848	0.859	0.877	0.86	0.871
pTyr fixed	1.06	0.646	0.306	0.529	0.409	1.74	1.03	1.15	1.09	0.896

SRC, construct: Full length, human (from UniProt P12931)
relative phosphorylation
Settings	at +1	at +2	at +3	at +4	at +5	at -1	at -2	at -3	at -4	at -5
A fixed	1.71	1.04	0.531	0.882	1.03	0.537	1.09	0.87	1.12	1.01
D fixed	0.651	0.589	0.472	0.783	0.787	0.691	1.57	1.93	1.48	1.36
E fixed	1.43	1.36	0.454	0.876	0.704	0.984	1.82	2.66	1.68	1.23
F fixed	0.696	1.21	3.63	1.19	1.24	0.688	0.649	0.959	1.2	1.03
G fixed	3.59	0.728	0.679	1.29	1.06	0.492	1.2	0.937	1.15	1.16
H fixed	0.667	0.556	0.874	0.983	0.891	0.504	0.917	0.842	0.875	0.871
I fixed	0.83	1.39	2.12	0.89	0.817	4.34	0.76	0.663	0.902	0.826
K fixed	0.229	0.535	0.369	0.982	1.06	0.229	0.522	0.462	0.566	0.758
L fixed	0.605	0.987	1.36	0.876	1.05	1.6	0.878	0.694	0.954	0.899
M fixed	1.09	1.09	0.913	1.19	0.87	0.764	0.657	0.765	0.91	0.901
N fixed	0.456	0.648	0.407	0.737	0.725	0.294	1.17	1.18	0.793	1.09
P fixed	0.274	0.7	0.453	0.931	1.49	1.11	1.26	0.814	1.17	1.21
Q fixed	0.764	0.802	0.416	1.08	0.851	0.378	1.11	1.01	0.941	0.976
R fixed	0.297	0.685	0.637	1.14	1.24	0.213	0.598	0.541	0.673	0.808
S fixed	1.04	1.67	0.626	0.932	1.15	0.385	1.18	0.971	0.797	0.955
T fixed	0.976	1.5	0.709	0.94	0.926	1.28	0.896	0.901	0.692	0.848
V fixed	1.14	1.39	1.5	0.919	0.947	2.86	0.834	0.664	0.784	0.82
W fixed	1.55	1.13	1.84	1.39	1.16	0.651	0.886	1.14	1.31	1.27
pThr fixed	1.52	1.76	0.528	0.686	0.645	2.28	1.83	1.46	1.3	1.37
pTyr fixed	3.88	2.03	0.798	1.32	0.829	1.27	1.55	1.66	1.97	1.46
